The values below come from patent US20190177709.

Assay in all cases: cell_activity
In series [1] the target is ZFN 65549 (right) F1 Qm5, F2 Qm5, F3 Qm5, F4 Qm5 (R to Q); FokI K525S (synthetic) (UniProt P14870). The following applies: with 63014, 60:60 ug RNA, CD34+ cells; Table 3 gives 79.82.
In series [2] the target is ZFN 65550 (right) F1 Qm5, F2 Qm5, F4 Qm5, F5 Qm5 (R to Q); FokI K525S (synthetic) (UniProt P14870). The following applies: with 63014, 60:60 ug RNA, CD34+ cells; Table 3 gives 79.96.
The target in series [3] is ZFN 65526 (right) F1 Qm5, F2 Qm5, F4 Qm5, F5 Qm5 (R to Q); FokI R416S (synthetic) (UniProt P14870). To be noted: with 63014, L:R 60:15 ug RNA, CD34+ cells.
The target of series [4] is ZFN 65459 (left) F1 Qm14 Qm5, F3 Qm5, F5 Qm5 (R to Q) (synthetic) (UniProt P14870). To be noted: with 65526, L:R 60:15 ug RNA, CD34+ cells.

As to “CACAGGCTCCAGGAAGGGTTTGGCCTCT (double strand) [BCL11A +58 right half-site]”, the activity in series [1] was 80 % indels; in series [2], 79.8 % indels; in series [3], 81.2 % indels.
In series [4], “AAAGCAACTGTTAGCTTGCACTAGACTA (double strand) [BCL11A +58 left half-site]” returned an activity of 76.9 % indels.
